Results: the DeepSol protein solubility set

Assay: soluble on expression in E. coli; label from the status in PepcDB or PDB records

Sequence | soluble on expression in E. coli
MSLRKRIIEVSTDYKILIVDDEEGIINSMKVMLTRSGYFCMGISNPLEAIETLKKEHFDMLILDYIMSPIHGDEVVAKIREFNKDIYILLLTGHKDLAPPLETIKALDIQGYCEKGDKFDQLLLLIESGIKSISQMRTIRQFKDGLNRILQAVPKIYQLQPIGVILEEILQGLMPLVNSKDAFILVDDCNSGEGKIIFKGVGEYDIKAESLVTMLSPELMENIGRARDSKKVLLLDHGIILPLTNEQNKSIGVIYIESSNLGDGIKLLEIYSTQAASSINNAFLHSLINMKKEELDRTYQELRKRYIDTIEALRLTVDAKDIYTRGHSDRVAYYAVKLGEAFGLPEDQLELLKVGGIFHDIGKIGTADDILFKTDKLSYDEYEEIKKHPLKGAYILSAISMFKDVVPLVKYHHERIDGKGYPEGLKGDEIPFLARILTVADAFDAMMSDRKYRSKLSLEETKEQFRLYSGTQFDPQVVEKLFEILENYDLMLEELSKTFTEGHHHHHH | soluble
MGSDKIHHHHHHMSVGIRHDDLRRRNRAMVIAAVRRAGRPSRTEIAATTGLSHSTISAISSDLIGEGILAEGKPSEAGALKRGRPQVGLGLNPEAAAVMTVVLSLNFLSVAVIDYAGQVISEEQRRLDTLTMSREALIGECVAIVRRRLEDPDIDVRSVARIALAIQGITDTEARAMLWSPITPQTDIAFADILEAEFGIPATMENDCNMMAVALRWRDPERYRDDFIAILLSHGIGMGLVLKGELFTGTHSSGGEFGHMIHRPGGALCRCGRRGCVEAYAGNYAIWRNARQLSEDTEPVADVSDAQMRALAATARERDGPEREAYRKAGEALGYGLGSLFALIDPAPVAMVGVSAAAFDLIEPALREAIAQTAGGQHSESISFDTEPNELPLIREGCAMRALTFVDQEIFAPGVQTKAGLAAKKNVA | not soluble
MSLKILIGEFAVGTDIEKSLIPEGAAMLKTLAESFVRVGHEVCYPSAGTEIGSGTALKSTADSFVQVIEREAKNCDAGLLIAPDGMLPELNRILAENTANLGCSPEAAARCADKLRCTEILKTAGINAPEIVREAEEGKKYVIKPRFGCGAEATYLVSGFENTGEFIASEYIEGEHLSVSLIAGNKPLPLTVNRQFIEFNEKKDGINPENIEVSGIKYNGSLTPYETPRRGELYETAVSAVKYLGCFGYVGVDIVLSEVPYVVDVNPRPTASIFGISRVMREEIGELLLTNRFGTLPDSVRVEGEYHFSKDMLGELFGKNEGHHHHHH | soluble
MAHHHHHHMILHGALSQERDRLLSSYLKSPITLSFPPPLPLLALPSPPSFFVYKKNVFFFRLGMGDARSASSKASSPSCVLAATPRDFGRSAEPGDSPRPPIIAVLYRPGQAKRERQPARGGRGGGQRRLVSYFLPALAAHVRHGKQWTTYPLSFLYPYRPSHSLSTPPHTPSIITDPRITRRKLASVLSLFYLQSVTMMASGGDEQLDALVDSILQSSDHLGSIDQITQRLPSPQQQQLSNPAFTSSTQQREHTSSDSHDTGVRAHMHAVSPGGSSSSVGNFVVAVPAAHHASASTSRATATHLDTEDGEKGEEEDDLSALVERILAGPGVRGRPSTSSASSPRFSQVPPPHIGNSGATSTSGLKGATRVKGGSSSLSRTFGAGPASPNARMQAVVRRLTLWYERKEAKRVQAVYEALEREQLDCTFEPRINRLGVEVGGSVVVDEDDRPLHRRHYSADEYPRRSSASSKARGSSGSRAVSHTNTISMSSSSSRVTPHVCEYIPSLQPPSQPITGADAFVERLRRAQDERDTVREAEEAKRLHYYDPTTFRRDLTVPVPFEFVETRPRRLAAAMTAAAGGSPSRGPGDIVGVTRTSIPPFSARAAALAACGDAGATPPRPAEDGFRDVNEDKRLTPENTFLSLAPHIRETLLFDRQMELQLRRATDSVRRVTRGE | not soluble
MKLLAITSCPNGIAHTYMAAENLQKAADRLGVSIKVETQGGIGVENKLTEEEIREADAIIIAADRSVNKDRFIGKKLLSVGVQDGIRKPEELIQKALNGDIPVY | not soluble
GVTGADGTTTFTLKQDQTTGLKTELTAALDSSSSTKSTLPVVFTVLTSPDSPKAKFWGHMAETATGDDGLIYRRPLLRDENSATTSIGTLVEEGEAWSTFPSGQANDTSINGCGAEYVPTDNELRAIYAHQGSSALHDAIGWPVSRFYISNTVADTFTQTFTYDVVSLKTGDETQMPSSGGALLSCR | not soluble
MCGRIAQKSAPEDYVEILWPNARLIFDDVAGPRYNIPPGTKPLTMHRLAGGFEVDRQWWTWRPSGSKYAMNCARLDKILGNKWPWKLLTARGRILVPADGWYEWKALDSSPKPAKQPYFIHGAGPLLFAGLSAWRPGAEMDEAHGFAIVTDDAQGGMVDVHDRRPVALPPELAREWVDPATPVARAMEILRAGLPETAFSWHPVRQEVGSSKYQLPDAIDPILEHHHHHH | soluble
MKFSVLTLFPQLVWPYFEDSILKRALEKNLFELEVLNLRDFSANKYQKADHTLIGGGAGQILDPEMVENALHSVKNPKHTIFLSAVGKPFKQTDAMRLAQKKHVVLVCGRYEGFDERSIELGADEVFCIGDFILTGGELGALCLIDSIARHIQGVLGNAQSLENESFENHYLEAPNFANAVFKSKEINKIPAPLEYSKGNHAKIKQLKLDLSKLRTKFYRLDLFKQHKSLEHHHHHH | not soluble
MVRMALEGMSKRKRKRSVQEGENPDDGVRGSPPEDYRLGQVASSLFRGEHHSRGGTGRLASLFSSLEPQIQPVYVPVPKQTIKKTKRNEEEESTSQIERPLSQEPAKKVKAKKKHTNAEKKLADRESALASADLEEEIHQKQGQKRKNSQPGVKVADRKILDDTEDTVVSQRKKIQINQEEERLKNERTVFVGNLPVTCNKKKLKSFFKEYGQIESVRFRSLVCFIPPLEHHHHHH | not soluble
GSHMASDLLELTEDMEKEISNALGHGPQDEILSSAFKLRITRGDIQTLKNYHWLNDEVINFYMNLLVERNKKQGYPALHVFSTFFYPKLKSGGYQAVKRWTKGVNLFEQEIILVPIHRKVHWSLVVIDLRKKCLKYLDSMGQKGHRICEILLQYLQDESKTKRNSDLNLLEWTHHSMKPHEIPQQLNGSDSGMFTCKYADYISRDKPITFTQHQMPLFRKKMVWEILHQQLL | soluble
MNIQAIDTRHGTANQHSFSNGNCLPYTGVPFGMNFYAPQTTDQKGSWWFHPEDRTFQGYRVTHQPSPWMGDFSHLLMTPVSGSLSELSLFHAQSSYRPEESLFSPVEINLTQLRYQITSQLIPSMYGGILTIDYQQKDNHLLLTLPGRYQVKQLDDHQVAVKVINYSGCEDPDFSFYFVLHFEQPLTKWFAPSSGLEHHHHHH | not soluble
VLLAIDVRNTHTVVGLLSGMKEHAKVVQQWRIRTESEVTADELALTIDGLIGEDSERLTGTAALSTVPSVLHEVRIMLDQYWPSVPHVLIEPGVRTGIPLLVDNPKEVGADRIVNCLAAYDRFRKAAIVVDFGSSICVDVVSAKGEFLGGAIAPGVQVSSDAAAARSAALRRVELARPRSVVGKNTVECMQAGAVFGFAGLVDGLVGRIREDVSGFSVDHDVAIVATGHTAPLLLPELHTVDHYDQHLTLQGLRLVFERNLEVQRGRLKTAR | soluble
MKLVLVSTRGVRSLNSTNFPAPWPFVKKGAFGQRKIGPMNYEKFKWPGQNREFPELSPKFQKLNPKELHRYTGVQADGFHDEKTGEFVPVKEMRSELVVPNLDGFKLRPYVSYRTDVQIEKRRVAYEKKVLEKGSERLADLHTVEDERWPPPKMSAETLFELAYGDTVRSAYKEGKYGNK | not soluble
MAHHHHHHMPAKSAKSKTQTLRDERKLGVEKLVELVFIGRPRTLSFSHRSLGSLRHPYSSLICETSAACASTQDKIMYLLEVFLEAKAEKKAWMRVERIFDSMLGDALMEKMKLGLLLSSELLQRFEVLWIRLGGVNGGFIFEDAYKQFHQHLYFTLFGIEQMTLLPATMQFILEDYQYDSHDKSGIDFGSFAHSMLELADNWAGSREVTDYVAFMDKIIECYPASAVKPCKTHAPDELTLSKDAFFRGGVVVPRVEGEQIVYHRITL | not soluble
MGSDKIHHHHHHMRLILYLGKGGVGKTTTSAATAVRAAELGYRTLVVSTDVAHSLADALDTPLGSLPTQITERLWGQEINVLDEVREHWGELRVYLSNLLRRRGVDEVAAEELAIIPGMEEVVSLLHIRRQAREGNFDVVIVDAAPTGETVRLLTMPETFQWYAARVMDWEPTTLKVARPLVKQLVPATDVFAKLERLTKGVEALRATLTDPQISSYRLVVNPERMVIKEAQRASTYLALFGYPVDGVVLNRVLPVDQVEGAFMQELARIQQGYRQMVYDLFRPLPIWESPYFARDLAGIEDLAMVGRRLFGDDDPVKVHFIGKTQEIVKQGDEYVLRLPLPHVEIGKVSMTKRGDELFIEIGNFRRDMLLPTTLAERPARRAYFRNGVLEVFFGPPETLSLKTDAQEESTPS | not soluble
GMASAIIETAIPQSEMTASATSEEGQDPASSAIDGNINTMWHTKWNGSDALPQSLSVNLGKARKVSSIAITPRTSGNNGFITKYEIHAINNGVETLVAEGTWEENNLVKTVTFDSPIDAEEIKITAIQGVGGFASIAELNVYE | soluble
MNNRSAVRILRLPAVIQKTGMARATIYDWLNPKSPRYDATFPKKRMLGVKSVGWIEAEIDEWLSQRCKLI | soluble
EEPSSNEIHIGSLVIFPDAYVVSKRDETIELTHREFELLHYLAKHIGQVMTREHLLQTVWGYDYFGDVRTVDVTVRRLREKIEDNPSHPNWIVTRRGVGYYLRNPEQD | soluble
MTEQVLFSVSENGVATITLNRPKALNSLSYDMLQPIGQKLKEWEHDERIALIVLKGAGTKGFCAGGDIKTLYEARSNEVALQHAERFFEEEYEIDTYIYQYTKPIIACLDGIVMGGGVGLTNGAKYRIVTERTKWAMPEMNIGFFPDVGAAYFLNKAPGYTGRFVALTASILKASDVLFINAADYFMTSDSLPEFLTELESVNWHKEDDVHTNLKEVIRTFATAPNLESELAPSLEVINSHFAFDTIEEIIHSLEKDESSFALKTKEILLSKSPISLKVTLKQFIDGQDKSVEECFATDLILAKNFMRHEDFFEGVRSVVVDKDQNPNYKYKQLSDVSEEDVNRFFNLLNA | not soluble
MFQVPDSEGGRAGSRAMKPPGGESSNLFGSPEEATPSSRPNRMASNIFGPTEEPQNIPKRTNPPGGKGSGIFDESTPVQTRQHLNPPGGKTSDIFGSPVTATSRLAHPNKPKDHVFLCEGEEPKSDLK | not soluble
MPLTDPAKLQIVQQRVFLKKVCRKCGALNPIRATKCRRCHSTNLRLKKKELPTKKG | soluble
MSLEKQKLIKLIDVAAGRKKADLVLKNAKIVDVFQAKILTGDIAISDGYIAGIGGSYQGVVECNYTGKYVAPGFIEAHIHIESSYVSPEEFSRVFIPRGTTTILADPHEIVNVAGLKGLDYMVNAAKNAKMDIRYMMPPCVPATNFETSGADLYADDMEDALKTGEVDGLAELMNFPGVINADDKMIDEILMAKKYGARIDGHAPQVVGKDLNAYIAAGPANDHECSTLEEAEERLARGMYLLLREGSVTQDLRKLLPIVNTANSRRCLLSGDDVQAKTAINKGHLDNSIRICIDEGLNPITAIQMATLNPAEYCGLNDRGAIAPGRRADMVVFESLEDFAVEETYILGEKLSQGNEYLGEVNYYPIDSVESSMHVKDFTREKLQLHLNSDKVRAIGVVPGEVLTTEEHVTVKRDGDGNFVYNDQEDVTKIVVVERHHNTGNVNVNLLSGYGIKAGAIAISIGHDSHNIIATGTNDDDIFMAVNELIKQEGGAVVVKDEKVISRMELKIAGLMCNLPAEKMIAQQDALDEAVHEELGVPDNVNPVMTLSFMPLAVIPKLKITDKGLVDVEKNAFVSNELDEGHHHHHH | soluble
MAEEAVDARGEGARFIEKVKSICGNTSRILYKYDEPTDPRYGYLPHERPLDVYLRYGMIVVDKPPGPTSHEVVAWIKRMLGVSRAGHGGTLEPLPAPRGLRGGDILK | soluble
